In patent US20090148447A1 (TRUBION PHARMACEUTICALS, published 2009):

T1: CD20 (UniProt P11836 1-297, limits assumed)
T1 construct: whole, on cells; also called CD20 on Wil2-S cells
T1 sequence (looked up): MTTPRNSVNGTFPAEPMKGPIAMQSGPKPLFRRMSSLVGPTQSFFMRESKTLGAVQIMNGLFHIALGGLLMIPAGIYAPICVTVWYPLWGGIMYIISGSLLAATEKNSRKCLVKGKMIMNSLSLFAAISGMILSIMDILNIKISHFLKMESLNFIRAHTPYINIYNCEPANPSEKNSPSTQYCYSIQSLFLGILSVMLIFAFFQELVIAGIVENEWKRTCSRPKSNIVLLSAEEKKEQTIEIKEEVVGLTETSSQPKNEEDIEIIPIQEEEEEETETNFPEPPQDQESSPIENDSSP


Key:
[1] = biological target: low-affinity CD16 (CD16lo); experiment: flow cytometry, CD16lo bound to sample on Ramos cells, goat anti-mouse-PE; sample 0.3 ug/ml
[2] = biological target: low-affinity CD16 (CD16lo); experiment: flow cytometry, CD16lo bound to sample on Ramos cells, goat anti-mouse-PE; sample 0.89 ug/ml
[3] = biological target: low-affinity CD16 (CD16lo); experiment: flow cytometry, CD16lo bound to sample on Ramos cells, goat anti-mouse-PE; sample 0.033 ug/ml
[4] = biological target: low-affinity CD16 (CD16lo); experiment: flow cytometry, CD16lo bound to sample on Ramos cells, goat anti-mouse-PE; sample 0.011 ug/ml
[5] = biological target: low-affinity CD16 (CD16lo); experiment: flow cytometry, CD16lo bound to sample on Ramos cells, goat anti-mouse-PE; sample 24 ug/ml
[6] = biological target: low-affinity CD16 (CD16lo); experiment: flow cytometry, CD16lo bound to sample on Ramos cells, goat anti-mouse-PE; sample 0.1 ug/ml
[7] = biological target: low-affinity CD16 (CD16lo); experiment: flow cytometry, CD16lo bound to sample on Ramos cells, goat anti-mouse-PE; sample 2.67 ug/ml
[8] = biological target: low-affinity CD16 (CD16lo); experiment: flow cytometry, CD16lo bound to sample on Ramos cells, goat anti-mouse-PE; sample 8 ug/ml
[9] = biological target: T1, CD20; experiment: flow cytometry on Wil2-S B-cells, PE goat anti-human IgG
Description: For the Wil2-S B-cell binding study, 100 ug/ml of PIMS was used. […] Binding was detected using a goat anti-human IgG (gamma specific) conjugated to phycoerythrin (PE) (Jackson Immunoresearch # 109-116-098) at 1:100 dilution in FACS buffer. Results were analyzed by one-color flow cytometry on a FACsCalibur using CellQuest software. In addition to assessing the binding of anti-CD20 PIMS to WIL2-S cells, the binding of anti-CD20 SMIPs to Wil2-S cells expressing CD20 on their surface was also assessed.

low-affinity CD16 (CD16lo), sequence (P08637 17-208): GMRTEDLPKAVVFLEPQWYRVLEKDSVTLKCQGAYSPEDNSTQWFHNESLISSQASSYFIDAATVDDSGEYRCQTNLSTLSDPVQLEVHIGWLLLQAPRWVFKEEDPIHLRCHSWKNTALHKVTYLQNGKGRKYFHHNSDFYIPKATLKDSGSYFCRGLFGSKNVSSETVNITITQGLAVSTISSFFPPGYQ

Geo MFI [1] | Geo MFI [2] | Geo MFI [3] | Geo MFI [4] | Geo MFI [5] | Geo MFI [6] | Geo MFI [7] | Geo MFI [8] | binding result [9] | Molecule
143 | 214 | 21.8 | 7.41 | 158 | 57.5 | 229 | 228 | – | TRU-016 (an anti-CD37 SMIP) (Fc fusion)
– | – | – | – | – | – | – | – | binds | 2Lm20-4HL12 (an HL anti-CD20 SMIP with a 12-amino-acid gly4ser linker) (Fc fusion, also called DNE078; not shown: The hinge and CH2CH3 of this SMIP are not specified) QVQLVQSGAESKKPGASVKVSCKASGYTFTSYNMHWVRQAPGQGLEWMGAIYPGNGDTSYNQKFKGRVTMTRDTSTSTVYMELSSLRSEDTAVYYCARSYYSNSYWYFDLWGRGTLVTVSSGGGGSGGGGSASEIVLTQSPATLSLSPGERATLSCRASSSVSYIVWYQQKPGQAPRLLIYAPSNLASGIPARFSGSGSGTDFTLTISSLEPEDFAVYYCQQWSFNPPTFGQGTKVEIK
– | – | – | – | – | – | – | – | binds | 2Lm20-4HL17 (an HL anti-CD20 SMIP with a 17-amino-acid gly4ser linker) (Fc fusion, also called DNE079; not shown: The hinge and CH2CH3 of this SMIP are not specified) QVQLVQSGAESKKPGASVKVSCKASGYTFTSYNMHWVRQAPGQGLEWMGAIYPGNGDTSYNQKFKGRVTMTRDTSTSTVYMELSSLRSEDTAVYYCARSYYSNSYWYFDLWGRGTLVTVSSGGGGSGGGGSGGGGSASEIVLTQSPATLSLSPGERATLSCRASSSVSYIVWYQQKPGQAPRLLIYAPSNLASGIPARFSGSGSGTDFTLTISSLEPEDFAVYYCQQWSFNPPTFGQGTKVEIK
